Laboratory results: patent US20060013804A1, “Modulation of stem cell differentiation by modulation of caspase-3 activity” (Ottawa Health Research Institute, priority 2002, published 2006)
Entries after “also recorded” stand apart in the source; their conditions may differ. Blank lines part the entries; values can stand above or below the molecule they belong to. Where a SMILES comes first, the peptide text is derived from it. The star is where a group is joined. Cbz = O=C(OCc1ccccc1)*; CH2F = FC*

Legend:
[1] = tested on: clonally-derived CD1 neurospheres; test: Neurite extensions / morphology of differentiating neurospheres; format: cell-based, mouse; conditions: differentiation media up to 5 d, 2.0 μM inhibitor, vs DMSO
Protocol: Neurospheres were sub-cultured no more than once per collection. The differentiation of neurospheres was initated by plating spheres on poly-L-ornithine coated plates in NeuroCult Differentiation Medium in the absence of bFGF, as per manufacturer's instructions. […] All cultures received fresh media and inhibitor every 24 h for the duration of the experiment. Neurospheres from caspase 3 null embryos (Fernando, P., et al., (2002) Proc Natl Acad Sci USA 99, 11025-11030) were cultured as described above.
Immunocytochemistry: Neurospheres were collected at selected time points, fixed in 4% paraformaldehyde and prepared for immunostaining as previously described (Fernando, P., et al., (2002) Proc Natl Acad Sci USA 99, 11025-11030)). The primary antibody concentrations for anti-nestin, -GFAP, -MBP and -active caspase 3 (BioVision, USA) were titrated on wildtype CD1 neurospheres prior to their experimental use. These antibodies were visualized by counterstaining with either FITC or Cy3 conjugated secondary antibodies (Chemicon USA). Nuclei were localized with 4′,6-Diamidino-2 phenylindole (DAPI) (Sigma, USA). Cells were visualized using either an Axiovert 100 for transmission microscopy or Axioplan 2 for fluorescent microscopy (Zeiss, Germany) at selected magnifications. Captured images were processed using AxioVision Viewer 3.0 software.
Quantitation of Neurite Extensions: Neurites from differentiating neurospheres were estimated from a total of 6-8 neurospheres per condition over three independent experiments. To quantitated neuritis, the average diameter of an individual neurosphere was estimated from the vertical and horizontal distance. The number of extensions leaving the neurosphere body were then counted and an ratio of neurosphere extensions:average neurosphere diameter was calculated for each. All measurements including neurosphere diameter were evaluated using Scion Image.

C2C12 myoblasts [2] = test: C2C12 myoblast differentiation in low serum media with caspase inhibitors (MF20 staining, immunoblot of myogenic markers); format: cell-based, mouse; conditions: 20 μM inhibitor
Protocol: (§1) Myoblast culture. C2C12 cell (mouse skeletal muscle myoblast) cultures were grown and maintained in DMEM containing 10% FBS with 50 units/ml penicillin and 50 μg/ml streptomycin (Gibco). Differentiation was induced by incubating cultures in DMEM containing only a low serum concentration (2% horse serum). Caspase activity was measured using a Caspase-3 and Caspase-8 Fluorometric Assay Kit (Pharmingen). […] Control cells were treated with an equivalent amount of vehicle (DMSO). Primary myoblast cells were derived from skeletal muscles of the hind- and fore-limbs from 1-2 day old C57BL/6 wild-type, caspase-3 heterozygous and caspase-3 null mice (Frasch, S. C., et al., (1998) J. Biol. Chem. 273, 8389-8397; Kuida, K., et al., (1996) Nature 384, 368-372) (n=5 for each genotype) as described (Cregan, S. P. et al., (1999) J. Neuro. 19, 7860-7869.). To induce differentiation, primary myoblast cultures were incubated in DMEM containing 5% horse serum.
Protein isolation, immunoblot analyses and immunocytochemistry. Cells from C2C12 and primary myoblast cultures were washed with ice-cold PBS and lysed on ice for 45 minutes in modified-RIPA buffer containing 20 mM NaF, 5 mM Na3VO4 and 10 μg/ml each of aprotinin, leupeptin, pepstatin and PMSF. Total protein was measured using the BCA protein assay (Pierce). Immunoblot analyses were performed as described (Creasy, C. L., & Chernoff, J. (1995) J. Biol. Chem. 270, 21695-21700) using antibodies for MST1, MKK6, p38γ, and p38α (Upstate), p38 and MEF2C (Cell Signaling Technologies), myogenin F5D and myosin heavy chain MF20 mAb (Developmental Hybridoma Bank), and active caspase-3 (Biovision).
C2C12 myoblasts were fixed and stained with anti-MF20 as previously described (Cregan, et al., (1999) J. Neuro. 19, 7860-7869). Primary myoblast cultures were fixed in 4% paraformaldehyde, rinsed three times in PBS containing 0.01% Triton X-100 and stained as above. For both C2C12 and primary myoblast cultures, nuclei were detected by incubating cells for 10 min with 4,6-diamidino-2-phenylindole diluted 1:10000 in PBS.
Cells were fixed after 0, 2 and 4 days of differentiation and stained with the myosin heavy chain antibody MF20. […] In contrast, differentiation was more evident in cells that were incubated with caspase-8 inhibitor, z-LETD.fmk (FIG. 2B bottom panel, C).

[3] = tested on: caspase-3-/- primary myoblasts; test: Transfection of MST1 constructs into caspase-3-/- primary myoblasts (rescue of myogenesis); format: cell-based, mouse; conditions: for myotube formation in caspase-3-/- myoblasts: transient transfection, primary caspase-3-/- myoblasts
Protocol: as §1
(§2) Transfection Assays. The complete open reading frame of the human MST1, [Genbank Accession No. gi|1117790] obtained from a clone bank collection (Stratagene) was inserted into the expression vector pcDNA3.1 Myc/His (Invitrogen). A constitutively active MST1 (MST1-act) was prepared as previously described (Megeney, L. A., et al., (1996) Genes Dev 10, 1173-1183). The integrity of both MST1 and MST1-act were confirmed by sequencing. The kinase activity of these protein products were verified by transient transfection into COS1 cells followed by immunoprecipitation and kinase analysis using Histone-H1 as the target substrate (see below). Transfections with MST1 and MST1-act into both COS1 and primary myoblasts were performed using Lipofectamine Plus (Gibco) as directed in the manufacturer's instructions.
To delineate the effect of MST1 on myogenesis, wild-type MST1, an activated MST1 (aa 1-330, MST1-act) or plasmid alone was transiently transfected into primary myoblasts derived from caspase-3^−/− mice. The activity of these constructs was verified by Histone H1 targeted kinase analysis of MST1 from transiently transfected COS1 cells (FIG. 5A).

[4] = target: T1, human MST1 (Mammalian Sterile Twenty-like kinase), full length, in vitro translated from MST1-pcDNA3.1 Myc/His
T1 chain: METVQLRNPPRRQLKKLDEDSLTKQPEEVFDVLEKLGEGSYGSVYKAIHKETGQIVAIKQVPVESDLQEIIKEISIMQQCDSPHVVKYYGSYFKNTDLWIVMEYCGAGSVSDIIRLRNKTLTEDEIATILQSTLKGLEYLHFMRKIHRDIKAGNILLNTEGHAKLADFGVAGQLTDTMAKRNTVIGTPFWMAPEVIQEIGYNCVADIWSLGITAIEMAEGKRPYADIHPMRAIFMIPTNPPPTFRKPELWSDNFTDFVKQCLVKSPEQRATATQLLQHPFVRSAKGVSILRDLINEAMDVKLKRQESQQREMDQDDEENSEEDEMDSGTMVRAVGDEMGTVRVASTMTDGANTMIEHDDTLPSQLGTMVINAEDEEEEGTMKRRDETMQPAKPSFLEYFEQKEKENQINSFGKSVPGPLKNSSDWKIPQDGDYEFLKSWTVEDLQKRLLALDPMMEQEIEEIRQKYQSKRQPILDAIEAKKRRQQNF

C2C12 myoblasts [5] = test: Transfection of recombinant active caspase-3 protein into subconfluent C2C12 myoblasts in growth media; format: cell-based, mouse
Protocol: To further test a cell-autonomous role of caspase-3 in inducing myoblast differentiation, active caspase-3 protein was transfected into a subconfluent population of C2C12 myoblasts maintained in growth media. Sub-confluent C2C12 myoblasts were transfected with […] of recombinant active caspase-3 and examined after 12 h for the presence of myosin heavy chain (anti-MF20) detected using a FITC conjugated secondary antibody. A confluent population of cells were incubated in low serum media (differentiation media) to induce myoblast differentiation and examined after 12 h. In all cells examined, nuclei were localised with DAPI staining. The results are shown in FIG. 3, which is representative of 7 trials.

Histone H1 = Histone H1 targeted kinase assay of MST1 constructs immunoprecipitated from transfected COS1 cells; format: biochemical; conditions: transiently transfected COS1 cells, Histone H1 substrate
Protocol: as §2
Co-immunoprecipitation and kinase analyses. Immunoprecipitation was performed using 150-200 μg of total protein, incubated in modified-RIPA buffer at 4° C. for 16 h containing the respective antibody. Samples were mixed for 1 h with 25 μl of a 50% Protein G (Pharmacia). For co-immunoprecipitation, immunoprecipitates were washed in modified-RIPA buffer, boiled in 1× Lamelli buffer, separated by SDS-PAGE and Western blotted for immunoblot analyses. […] Following SDS-PAGE, gels were dried and phospho-incorporation was analyzed by autoradiography. […]

[6] = tested on: wildtype primary myoblasts; test: Transfection of MST1-act into wildtype primary myoblasts; format: cell-based, mouse
Protocol: as §1
Transfection Assays. The complete open reading frame of the human MST1, [Genbank Accession No. gi|1117790] obtained from a clone bank collection (Stratagene) was inserted into the expression vector pcDNA3.1 Myc/His (Invitrogen). A constitutively active MST1 (MST1-act) was prepared as previously described (Megeney, L. A., et al., (1996) Genes Dev 10, 1173-1183). The integrity of both MST1 and MST1-act were confirmed by sequencing. […]

Molecule: CC[C@H](C)[C@H](NC(=O)OCc1ccccc1)C(=O)N[C@@H](CCC(=O)OC)C(=O)N[C@H](C(=O)N[C@@H](CC(=O)OC)C(=O)CF)[C@@H](C)O [z-IETD.fmk] (Cbz-IE(OMe)TD(OMe)-CH2F)
neurite extensions / morphological changes [1]: did not affect morphological changes in neurosphere differentiation
neurite extensions / morphological changes ([1]; listed as IETD): extensive neurite networking present

myotube formation (C2C12 myoblasts [2]; C2C12, low serum media, MF20 staining, up to 4 days, vs DMSO): minor attenuation of myotube formation
Molecule: COC(=O)CC[C@H](NC(=O)[C@H](CC(C)C)NC(=O)OCc1ccccc1)C(=O)N[C@H](C(=O)N[C@@H](CC(=O)OC)C(=O)CF)[C@@H](C)O [z-LETD.fmk] (Cbz-LE(OMe)TD(OMe)-CH2F)
degree of differentiation (C2C12 myoblasts [2]; C2C12, low serum, vs vehicle treated cells): remained below that observed in vehicle treated cells

Molecule: COC(=O)C[C@H](NC(=O)[C@H](C)NC(=O)[C@@H](NC(=O)OCc1ccccc1)C(C)C)C(=O)CF [z-VAD.fmk] (Cbz-Val-Ala-Asp(OMe)-CH2F)
neurite extensions / morphological changes [1]: gave results similar to caspase 3 inhibition

myotube formation in caspase-3-/- myoblasts [3]: remained as mono-nucleated myoblasts
B1: wild-type MST1: complete open reading frame of human MST1 in expression vector pcDNA3.1 Myc/His, transfected (protein)
chain: T1 chain

B2: caspase-3 (endogenous, in lysates or cultures of mouse C2C12 myoblasts and mouse CD1 neurospheres) (protein)
chain: SGIYLDSSYKMDYPEMGICIIINNKNFHKSTGMSSRSGTDVDAANLRETFMGLKYQVRNKNDLTREDILELMDSVSKEDHSKRSSFVCVILSHGDEGVIYGTNGPVELKKLTSFFRGDYCRSLTGKPKLFIIQACRGTELDCGIETDSGTDEEMACQKIPVEADFLYAYSTAPGYYSWRNSKDGSWFIQSLCSMLKLYAHKLEFMHILTRVNRKVATEFESFSLDSTFHAKKQIPCIVSMLTKELYFYH
proteolytic cleavage of [35S]-methionine labelled MST1 by C2C12 lysates (SDS-PAGE, autoradiography) [4]: the lower 36 kDa MST1 fragment was not apparent in samples where caspase-3 activity was inhibited
transfected cells undergoing differentiation (C2C12 myoblasts [5]; C2C12 in growth media, 20 µg protein, 12 h, myosin heavy chain immunodetection, n=4): > 95%
morphologic features of apoptosis (C2C12 myoblasts [5]; transfected C2C12 expressing myosin heavy chain): did not display any morphologic features normally attributed to apoptosis

efficiency of differentiation ([3]; caspase-3 knockout myoblasts containing construct): > 85%
B3: MST1-act: constitutively active MST1 (aa 1-330) expressed from pcDNA3.1 Myc/His by transfection (protein, UniProt Q13043 1-330, looked up, fragment)
chain: METVQLRNPPRRQLKKLDEDSLTKQPEEVFDVLEKLGEGSYGSVYKAIHKETGQIVAIKQVPVESDLQEIIKEISIMQQCDSPHVVKYYGSYFKNTDLWIVMEYCGAGSVSDIIRLRNKTLTEDEIATILQSTLKGLEYLHFMRKIHRDIKAGNILLNTEGHAKLADFGVAGQLTDTMAKRNTVIGTPFWMAPEVIQEIGYNCVADIWSLGITAIEMAEGKPPYADIHPMRAIFMIPTNPPPTFRKPELWSDNFTDFVKQCLVKSPEQRATATQLLQHPFVRSAKGVSILRDLINEAMDVKLKRQESQQREVDQDDEENSEEDEMDSGTM
modifications: Myc/His tag
kinase activity of construct (Histone H1): high level of kinase activity
myotube formation in caspase-3-/- myoblasts [3]: elongated and fused with neighbouring cells to form multinucleated myotubes; also recorded: differentiated to form fused, multinucleated myotubes
myogenesis in wildtype myoblasts ([6]; 2 days in differentiation media, vs untransfected wildtype): comparable to wildtype cultures after 4-5 days of differentiation; also recorded: accelerated myogenesis after 2 days
apoptosis on protracted differentiation ([6]; differentiation time course >4 days): enhanced apoptosis
